Tests used:
[1] = molecular target: T1, human C1s mutant M17 (N380H) (human, UniProt P09871 16-688); test: ELISA, plate coated with human C1s mutant M17: N380H, OD450nm
T1 construct: The entry is the mutant itself
T1 sequence: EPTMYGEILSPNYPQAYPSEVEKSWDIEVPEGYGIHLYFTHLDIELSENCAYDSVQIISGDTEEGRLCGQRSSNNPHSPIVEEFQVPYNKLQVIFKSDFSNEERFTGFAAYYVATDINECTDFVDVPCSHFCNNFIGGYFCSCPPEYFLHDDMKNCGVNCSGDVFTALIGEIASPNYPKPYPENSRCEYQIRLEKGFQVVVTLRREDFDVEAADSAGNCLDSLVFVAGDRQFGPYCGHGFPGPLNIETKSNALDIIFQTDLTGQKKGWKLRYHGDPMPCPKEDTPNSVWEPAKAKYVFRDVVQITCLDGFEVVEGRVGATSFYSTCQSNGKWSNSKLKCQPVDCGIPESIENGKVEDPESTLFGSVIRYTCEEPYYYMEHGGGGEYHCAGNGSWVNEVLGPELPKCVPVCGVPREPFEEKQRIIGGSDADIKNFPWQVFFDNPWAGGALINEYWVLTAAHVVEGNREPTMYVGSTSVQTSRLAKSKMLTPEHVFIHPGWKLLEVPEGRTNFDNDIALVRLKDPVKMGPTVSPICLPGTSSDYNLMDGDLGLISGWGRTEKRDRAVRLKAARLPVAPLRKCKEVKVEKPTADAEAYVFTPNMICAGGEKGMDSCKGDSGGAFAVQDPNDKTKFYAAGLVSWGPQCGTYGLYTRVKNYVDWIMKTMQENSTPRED
Procedure: (§1) ELISA was carried out by first coating 96-well plates with 200 ng/well of full-length or truncated C1s proteins overnight. The next morning, plates were blocked with SuperBlock T20 blocking buffer (Thermo Scientific 37536) for 1 h with gentle shaking. Then, various concentrations of anti-C1s antibodies diluted in SuperBlock T20 blocking buffer were added to the plates and incubated for 1 h with gentle shaking. Mouse IgG (Sigma-Aldrich 15381) and human IgG1 (BioXCell BP0297) were used as negative controls. The plates were washed before incubating with HRP conjugated secondary antibodies diluted in SuperBlock T20 blocking buffer (goat anti-mouse IgG (H+L) cross-adsorbed secondary antibody HRP (Invitrogen G-21040) or goat anti-human IgG antibody, HRP conjugate (Millipore AP309P)) for 1 h with gentle shaking. At last, the plates were washed and color developed with ELISA liquid HRP substrate (Sigma-Aldrich), followed by stopping the reaction with addition of 1M H₂SO₄ in the same volume as the ELISA liquid substrate. Bound antibody was measured by absorbance at OD₄₅₀ₙₘ.
(§2) Binding of anti-C1s antibodies to mutants M1-M20 of human C1s was measured by ELISA as described in Example 4, and results are shown in FIGS. 6B-6U. All anti-C1s humanized variants including hz2-7(H1L2), hz2-8(H1L2 G80A) and hz2-8(H1L2 G80A/T82A) maintained strong binding properties to the majority (16 out of 20) of C1s mutants including M1 (FIG. 6B), M2 (FIG. 6C), M3 (FIG. 6D). M4 (FIG. 6E), M7 (FIG. 6H), M8 (FIG. 6I), M10 (FIG. 6K), M11 (FIG. 6L), M12 (FIG. 6M), M13 (FIG. 6N), M15 (FIG. 6P), M16 (FIG. 6Q), M17 (FIG. 6R), M18 (FIG. 6S), M19 (FIG. 6T) and M20 (FIG. 6U).

[2] = molecular target: T2, human C1s mutant M15 (S360N) (human, UniProt P09871 16-688); test: ELISA, plate coated with human C1s mutant M15: S360N, OD450nm
T2 construct: The entry is the mutant itself
T2 sequence: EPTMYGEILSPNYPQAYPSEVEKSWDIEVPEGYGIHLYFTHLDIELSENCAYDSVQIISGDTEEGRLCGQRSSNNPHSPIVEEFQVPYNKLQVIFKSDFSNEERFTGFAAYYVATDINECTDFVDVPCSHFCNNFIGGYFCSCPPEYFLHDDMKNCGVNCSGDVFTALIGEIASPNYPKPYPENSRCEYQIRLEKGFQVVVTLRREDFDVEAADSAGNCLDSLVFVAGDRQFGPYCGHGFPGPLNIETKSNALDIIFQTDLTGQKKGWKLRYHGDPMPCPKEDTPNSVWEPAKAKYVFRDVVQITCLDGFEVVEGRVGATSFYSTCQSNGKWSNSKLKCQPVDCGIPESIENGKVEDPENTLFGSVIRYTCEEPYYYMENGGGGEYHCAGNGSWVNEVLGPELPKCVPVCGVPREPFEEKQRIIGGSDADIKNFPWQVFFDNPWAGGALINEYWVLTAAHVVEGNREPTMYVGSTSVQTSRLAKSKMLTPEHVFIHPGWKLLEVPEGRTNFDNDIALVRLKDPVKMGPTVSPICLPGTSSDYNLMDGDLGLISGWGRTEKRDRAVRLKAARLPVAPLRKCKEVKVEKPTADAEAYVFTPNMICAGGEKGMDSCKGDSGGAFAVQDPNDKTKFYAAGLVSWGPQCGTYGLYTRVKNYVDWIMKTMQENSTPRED
Procedure: as §1, §2

Row | Binder | EC50 [1] [ng/mL] | EC50 [2] [ng/mL]
1 | Anti-C1s antibody hz2-7(H1L2) (antibody, V domains shown, Humanized, human IgG1 / kappa; also called hz2-7(1L2)) VH: EVQLLESGGGLVQPGGSLRLSCAASGFTFSNYFMNWVRQAPGKGLEWVSEIRLKFTNYATHYADSVKGRFTISRDDSKSTLYLQMNSLRAEDTAVYYCTRDYGSRNGYFDYWGQGTLVTVSS VL: DIVMTQTPLSLPVTPGEPASISCRSSKSLLHSNGNTFLYWFLQKPGQSPQLLIYRMSNLASGVPDRFSGSGSGTDFTLKISRVEAEDVGVYYCMQHLEYPYTFGGGTKLEIKR | 4 | 3
2 | Anti-C1s antibody hz2-8 (H1L2 G80A) (antibody, V domains shown, Humanized variant with G80A in HC CDR2 (already in the entry), human IgG1 / kappa) VH: QVQLVQSGAEVKKPGASVKVSCKASGFNIKEYYMHWVRQAPEQGLEWMGWIDPENADTIYAQKFQGRVTITADTSTNTAYMELSSLRSEDTAVYYCARSRLFFAYWGQGTLVTVSS VL: DIQMTQSPKSLSASVGDRVTITCRASQDVRTALDWYQQKPGQSPKLLIYSASYRYSGVPSRFSGSGSGTDFTLTISSLQPEDFATYYCQQQYTTPYTFGQGTKLEIKR | 5 | 4
3 | Anti-C1s antibody hz2-8 (H1L2 G80A/T82A) (antibody, V domains shown, Humanized variant with G80A and T82A in HC CDR2 (already in the entry), human IgG1 / kappa) VH: QVQLVQSGAEVKKPGASVKVSCKASGFNIKEYYMHWVRQAPEQGLEWMGWIDPENADAIYAQKFQGRVTITADTSTNTAYMELSSLRSEDTAVYYCARSRLFFAYWGQGTLVTVSS VL: DIQMTQSPKSLSASVGDRVTITCRASQDVRTALDWYQQKPGQSPKLLIYSASYRYSGVPSRFSGSGSGTDFTLTISSLQPEDFATYYCQQQYTTPYTFGQGTKLEIKR | 8 | 5

— patent US20230051715A1 (MABWELL THERAPEUTICS, published 2023)
